Measured values: paper PMC10808074, “Regulation of micro- and small-exon retention and other splicing processes by GRP20 for flower development”
Substitutions are numbered along the chain they refer to.

T1: GRP20 (Arabidopsis thaliana, UniProt Q7DV38 1-153)
T1 sequence: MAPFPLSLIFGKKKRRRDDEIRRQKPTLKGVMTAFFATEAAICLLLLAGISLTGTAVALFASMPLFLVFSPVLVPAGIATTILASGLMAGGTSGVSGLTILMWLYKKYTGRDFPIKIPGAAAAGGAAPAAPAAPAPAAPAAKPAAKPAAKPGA

T2: GRP20ΔRBD (Arabidopsis thaliana, UniProt Q7DV38 1-153, del92-115)
T2 sequence: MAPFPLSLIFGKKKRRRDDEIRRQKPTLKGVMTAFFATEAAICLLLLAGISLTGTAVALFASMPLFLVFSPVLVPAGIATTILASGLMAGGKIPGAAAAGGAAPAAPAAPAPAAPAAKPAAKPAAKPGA

T3: GRP20ΔHDR (Arabidopsis thaliana, UniProt Q7DV38 1-118)
T3 sequence: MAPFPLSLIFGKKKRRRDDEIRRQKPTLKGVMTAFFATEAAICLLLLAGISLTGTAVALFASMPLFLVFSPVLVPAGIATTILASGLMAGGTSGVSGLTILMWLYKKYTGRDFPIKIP

T4: GRP20 (RBDm) (Arabidopsis thaliana, UniProt Q7DV38 1-153, M102A;W103A;Y105A;K106A;K107A)
T4 sequence: T1 sequence with M102A, W103A, Y105A, K106A, K107A


Legend:
Assay in all cases: EMSA; Probes: 400 fmol RNA, 17 ug protein, 1x binding buffer (Molecular Probes E33075 kit), room temp 30 min, 5% native PAGE, SYBR Green; pre-mRNA: 500 ng RNA in 10 mM HEPES, 150 mM NaCl, 3 mM EDTA, 2 mM DTT, 10% glycerol, 1 mM PMSF, room temp 30 min; pH not stated
Conditions in all cases: protein: recombinant; tags: N-terminal His6-SUMO
[1] = target: T1, GRP20
[2] = target: T2, GRP20ΔRBD
[3] = target: T3, GRP20ΔHDR
[4] = target: T4, GRP20 (RBDm)

Binder	binding result [1]	binding result [2]	binding result [3]	binding result [4]
AUAUAUCUUU (ssRNA) [P3 (A3SS)]	binds	–	–	–
AGGAGAAGGCC (ssRNA) [AP1-probe]	binds	–	–	–
GAAGAAGAAGAAG (ssRNA) [P1 (GA-rich consensus ES_C1)]	binds	no binding	binds	no binding
UUGAUUAUGU (ssRNA) [P2 (ES_C2)]	binds	–	–	–
AUGAUAAUGCC (ssRNA) [AP1m-probe]	no binding	–	–	–
